The values below come from PMC6649072.

Substrate in the data set: C[C@@H]1O[C@@H](Oc2ccc([N+](=O)[O-])cc2)[C@H](O)[C@H](O)[C@H]1O
The experiment in a line: purified protein. As to conditions: pH 5.0, 37 °C (b12; Experimental b31 prints Tris 200 mM, pH 6.0).

B1: DtRha (Dictyoglomus thermophilum H-6-12) (protein)
chain: MKSSNIYSPFDLKCEFTTNPLGVDKKNPIFSWKLRHLEKNEKQTAYQVIVSSSLETINDNIGDVWDTGKVLSSEQVIKYEGKELEPCKVYFWKVRWWDSKDQESPFSVVNTFETGLMNEENWKAKWITKKEHKYEVYSPDGAPFGLNYTIAYAPMFRKSFSISKKIKRARVYIAGLGLYELYINGERIGDRVLDPGQTDYKKRVLYTVYDVSKNIRDGKNAIGVILGNGRYVKEYGYDFPKLIIQVLVEYEDDSIEWIVSDESWKTTYGPITLNSLYHGEIYDGRKEIKGWNLPDFDDSTWENAILAEPPGGKLYSEIYPPIRITKTIKPIKMWSPEPGTYVYDFGQNYTGWIKIKVRTNESGKEIRIRHAELTYEDGTLNYSTNRTALATDVYITKGEGYEEYEPRFTYHGFRYVEILGYPGVPTLEDIEGKVVHTAVESNGEFICSNELINKIHHNIIWGQLSNLMSIPTDCPQRDERMGWMGDAQLSAEEAIFNFDMIGFYRKYLNDIRDAQKENGSLSDVIPPYWSIYPGDPAWSTAYITIAWYLYQYYGDKYVLEEHYEGFKKYVEFLKKLAPDYIVSFYKYGDWCQPGTVRPKDNSGELTSTFYFYHDVITLSKIAKLLGKEADYKYYSELADKIKSAFNKKFLKEKAYASIPTELSEENVKALLEKYPEDIKDFLRQQFTILSSLGMFTSQTLNTLPLYLNLVPEDKVQDVLKTLLEDIIIRHDYHLDTGIVATRYIFDVLTSYGYDEVAYKIVNQKTYPSFGYMIEEGATTLWERWEKLTSTGMNSHNHIMFGSVDAWFYRVIAGVRVGEPGWNKIIFEPHPVGDLKYAKARLNTIKGEVEINWQKTENIFSMRISVPVNSEGEVHVPKLFERFVVKEGDNIIYEKKGDLEENEKYIVIRVGSGSYNFYMEKI
On to B1, for which the Michaelis constant (Km) (in general, the concentration of substrate that gives half-maximal velocity) came out at 54.00 ± 0.03 µM and the kcat – broadly, the maximal rate divided by the concentration of active sites – was determined as 0.17 ± 0.01 s⁻¹.
